Data on one molecule can be found in article PMC8547449, “Streptococcus pyogenes Forms Serotype- and Local Environment-Dependent Interspecies Protein Complexes” (mSystems, 2021).

The assay has as its target T1, C4b-binding protein (human, UniProt P04003 49-597; P20851 18-252).
T1 construct: In the AP-MS experiments it was followed by its alpha chain (C4BPA); also called C4BP; C4BPα; source: endogenous, pooled human plasma (AP-MS); bought: Complement Technology, purified human complement C4BP, catalog A109 (SPR, TX-MS, HDX-MS); copies: 7 +
T1 sequence (looked up) 1: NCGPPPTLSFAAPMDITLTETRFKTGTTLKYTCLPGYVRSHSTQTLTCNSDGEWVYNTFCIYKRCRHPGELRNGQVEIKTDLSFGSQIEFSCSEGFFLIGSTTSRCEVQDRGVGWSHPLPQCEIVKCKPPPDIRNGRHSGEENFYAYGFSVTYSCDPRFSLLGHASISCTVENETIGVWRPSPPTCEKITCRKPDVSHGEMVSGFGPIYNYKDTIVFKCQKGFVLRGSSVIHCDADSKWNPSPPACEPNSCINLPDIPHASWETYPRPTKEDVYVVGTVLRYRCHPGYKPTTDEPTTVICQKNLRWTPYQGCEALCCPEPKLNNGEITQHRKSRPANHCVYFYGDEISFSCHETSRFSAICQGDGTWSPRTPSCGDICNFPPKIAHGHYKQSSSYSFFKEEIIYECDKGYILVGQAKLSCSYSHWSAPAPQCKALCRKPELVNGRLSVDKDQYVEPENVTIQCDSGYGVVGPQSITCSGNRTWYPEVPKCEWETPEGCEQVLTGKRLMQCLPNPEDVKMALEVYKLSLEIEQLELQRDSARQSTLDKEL
T1 sequence (looked up) 2: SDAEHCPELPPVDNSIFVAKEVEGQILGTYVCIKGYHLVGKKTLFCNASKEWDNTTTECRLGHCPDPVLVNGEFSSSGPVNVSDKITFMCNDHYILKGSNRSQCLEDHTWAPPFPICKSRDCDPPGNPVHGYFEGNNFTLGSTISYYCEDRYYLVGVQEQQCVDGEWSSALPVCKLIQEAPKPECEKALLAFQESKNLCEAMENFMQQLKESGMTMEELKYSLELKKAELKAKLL
As to the kind of experiment: cross-linking; TX-MS: 10 μg C4BP or 10 μg IgA Fc with 10 μg untagged M28 in 100 μl PBS, 37°C, DSS-H12/D12 at 0 to 2,000 μM for 60 min; cross-linked peptides by DDA-MS. The settings on record: both partners purified.

B1: M28 protein, recombinant, affinity tag removed by TEV protease (natural protein)
chain: AESPKSTETSANGADKLADAYNTLLTEHEKLRDEYYTLIDAKEEEPRYKALRGENQDLREKEGKYQDKIKKLEEKEKNLEKKSEDVERHYLKKLDQEHKEQEERQKNLEELERQSQREIDKRYQEQLQKQQQLETEKQISEASRKSLSRDLEASRAAKKDLEAEHQKLKEEKQISDASRQGLSRDLEASRAAKKDLEAEHQKLKEEKQISDASRQGLSRDLEASREAKKKVEADLAEANSKLQALEKLNKELEEGKKLSEKEKAELQARLEAEAKALKEQLAKQAEELAKLKGNQTPNAKVAPQANRSRSAMTQQKR
notes: M protein of S. pyogenes serotype M28, mature, without the signal peptide and the LPXTG cell wall-anchoring motif, aa 42 to 358; Used for SPR, TX-MS and HDX-MS; also called untagged M28; TEV-cleaved M28; source: E. coli Tuner(DE3), purified (HisTrap, TEV digestion, HisTrap, Superdex 200)
With B1, the binding result is “binds”.
